Data published in patent US7160981B2, “Peptide antagonists of DP transcription factors” (Prolifix Limited, priority 1996, dated 2007).
“Also recorded” adds a separate entry of the source.

Columns and labels:
[1] = biological target: T1, E2F DNA binding activity of DP-1/E2F-1 heterodimer (Homo sapiens, UniProt Q01094); experiment: DP-1/E2F-1 DNA binding assay (gel retardation, bacterial fusion proteins); type: biochemical; settings: peptide titrated 1, 0.5, 0.1, 0.01 nmol
T1 construct: GST (N); made in house; host or cells: bacterial
Excerpt: Since the peptides function as antagonists of the formation of the DP/E2F heterodimer, we reasoned that they may also interfere with E2F DNA binding activity. To address this question, we determined whether the E2F DNA binding activity created in vitro from combining bacterial DP and E2F fusion proteins was affected by the peptides.
As previously shown, the interaction between DP-1 and E2F-1 leads to co-operative DNA binding activity. Peptide H (SEQ ID NO:1) was titrated into the DP-1/E2F-1 DNA binding assay, using 1 nmol, 0.5 nmol, 0.1 nmol and 0.01 nmol of peptide.
(§1) Gel retardation was performed using 5 to 10 μg of either F9 EC or JM cell extract with either an E2F or ATF site as previously described (15). Where fusion proteins were used, about 25 ng of either DP-1 or E2F-1 were used in each binding assay. For in vitro translates, about 6 μl of the translation mix was used in each binding assay. Gel retardation with an E2F binding site taken from the adenovirus E2a promoter was as previously described (15).

DP-1/E2F-1 heterodimer = biological target: T2, DP-1/E2F-1 heterodimer (Homo sapiens, UniProt Q01094); experiment: binding assay: GST-E2F-1 fusion protein bound to in vitro translated DP-1, peptide competition; settings: peptide included in binding reaction
T2 construct: GST (N); made in house; DP-1 made by in vitro translation
Excerpt: To determine the influence of the DEF box region upon the formation of the DP-1/E2F heterodimer, we used a binding assay in which E2F-1, expressed as a GST-E2F-1 fusion protein, bound to in vitro translated DP-1, an assay used previously to measure dimerization between DP and E2F proteins (31,32). Peptides were included in the binding reaction and their ability to compete with wild-type DP-1 for E2F-1 assessed by the amount of DP-1 which remained bound to the E2F-1 fusion protein.
(§2) GST-E2F-1, E2F-2, E2F-3 and pRb have been described previously (27,31,32) and were purified to homogeneity using glutathione Sepharose. In vitro translated DP-1, DP-1^172/173, E2F-1 and E1a were translated as described previously (27,31,32).
as §1

[2] = test system: physiological E2F DNA binding activity (DP-1/E2F heterodimer) in F9 embryonal carcinoma cell extracts; experiment: gel retardation, E2F site, F9 EC cell extracts; type: biochemical; settings: for inactivation of E2F DNA binding activity in F9 EC cell extracts: F9 EC cell extract, peptide up to 1 nmol
Excerpt: Because the DEF box peptides can antagonise DNA binding activity of the DP-1/E2F heterodimer formed in vitro, we went on to establish their effects on physiological E2F. For this experiment, we used extracts prepared from F9 embryonal carcinoma (EC) cells, since these cells contain high levels of endogenous E2F DNA binding activity as a DP-1/E2F-heterodimer (26).
(§3) In a similar fashion to its effect upon the in vitro formed activity, the physiological DNA binding activity in F9 EC cell extracts was inactivated upon titration of peptide H (using the same concentrations mentioned above), but not by H1. This effect was specific for E2F since no effect on the unrelated DNA binding activity ATF was observed under similar conditions.
as §1

[3] = biological target: T3, pRb / adenovirus E1a protein interaction (Homo sapiens, UniProt P06400); experiment: specificity control: binding of pRb to in vitro translated adenovirus E1a protein; settings: unrelated protein-protein interaction control
T3 construct: GST; made in house; host or cells: pRb fusion purified on glutathione Sepharose; E1a made by in vitro translation
T3 sequence (P06400 1-928): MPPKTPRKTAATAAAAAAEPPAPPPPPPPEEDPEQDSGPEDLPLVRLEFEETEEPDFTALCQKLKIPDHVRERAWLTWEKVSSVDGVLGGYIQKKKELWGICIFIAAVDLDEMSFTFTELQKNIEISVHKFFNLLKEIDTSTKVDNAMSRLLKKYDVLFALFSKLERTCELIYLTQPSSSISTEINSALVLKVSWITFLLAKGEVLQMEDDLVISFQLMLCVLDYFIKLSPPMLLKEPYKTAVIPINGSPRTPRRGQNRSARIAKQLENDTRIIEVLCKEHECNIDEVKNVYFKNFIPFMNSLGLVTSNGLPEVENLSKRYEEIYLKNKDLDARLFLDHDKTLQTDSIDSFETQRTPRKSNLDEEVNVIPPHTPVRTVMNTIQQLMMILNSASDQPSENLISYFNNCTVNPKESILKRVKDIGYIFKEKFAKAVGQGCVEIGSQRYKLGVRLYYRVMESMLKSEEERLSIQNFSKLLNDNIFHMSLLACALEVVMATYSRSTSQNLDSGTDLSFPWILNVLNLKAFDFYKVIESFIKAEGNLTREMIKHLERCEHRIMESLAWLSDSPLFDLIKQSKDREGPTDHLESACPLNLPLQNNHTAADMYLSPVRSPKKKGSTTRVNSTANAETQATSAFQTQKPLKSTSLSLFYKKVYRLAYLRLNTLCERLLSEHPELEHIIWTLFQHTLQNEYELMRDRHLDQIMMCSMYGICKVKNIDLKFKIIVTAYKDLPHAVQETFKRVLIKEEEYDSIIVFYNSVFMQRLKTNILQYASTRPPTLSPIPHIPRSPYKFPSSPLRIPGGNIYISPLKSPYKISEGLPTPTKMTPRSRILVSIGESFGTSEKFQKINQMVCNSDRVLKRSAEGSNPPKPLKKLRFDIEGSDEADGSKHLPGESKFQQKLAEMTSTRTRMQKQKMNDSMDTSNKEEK
Procedure: To evaluate the specificity of this effect, we undertook two controls. Firstly, the effect of DEF box derived peptides on an unrelated but well characterised protein-protein interaction was assessed, namely the binding of pRb to the adenovirus E1a protein (34). The E1a protein, when provided in the assay as an in vitro translate, specifically bound to pRb. […] Secondly, unrelated peptides representing other regions of DP-1 or subdomains of peptide H were assessed in the binding reaction. […] Overall, the results argue that peptide H antagonises the interaction between DP-1 and E2F-1 in the formation of a heterodimer.
as §2

ATF DNA binding activity = experiment: gel retardation, ATF site (specificity control); type: biochemical; settings: similar conditions as E2F assay
Procedure: as §3, §1

DP-1/E2F-3 heterodimer = biological target: T4, DP-1/E2F-3 heterodimer (Homo sapiens, UniProt O00716); experiment: binding assay: GST-E2F-3 bound to in vitro translated DP-1; settings: peptide 5 nmol, 1 nmol, 100 pmol
T4 construct: GST (N); made in house; host or cells: GST fusion purified on glutathione Sepharose; DP-1 made by in vitro translation
Excerpt: (§4) FIG. 2 illustrates that peptides containing DEF box sequence prevent DP-1 forming a heterodimer with E2F family members. The ability of in vitro translated DP-1 (indicated by bracket) to bind to GST-E2F-1 (tracks 1,2,3 and 4), GST-E2F-2 (5,6,7 and 8) or GST-E2F-3 (9,10,11 and 12) in the absence (tracks 1,5 and 9) or presence of decreasing levels of peptide H (5 nmol; tracks 2,6 and 10; 1 nmol tracks 3,7 and 11 or 100 pmol tracks 4,8 and 12).
(§5) In the second, the activity of the DEF box antagonist peptide H was assessed on heterodimers formed between DP-1 and the other E2F family members, E2F-2 and E2F-3, which show high conservation with E2F-1 across the DEF box. […] We conclude therefore that peptides representing sequence derived from the DEF box function as specific antagonists of the DP-1/E2F heterodimer.
as §2

DP-1/E2F-2 heterodimer = biological target: T5, DP-1/E2F-2 heterodimer (Homo sapiens, UniProt Q14209); experiment: binding assay: GST-E2F-2 bound to in vitro translated DP-1; settings: peptide 5 nmol, 1 nmol, 100 pmol
T5 construct: GST (N); made in house; host or cells: GST fusion purified on glutathione Sepharose; DP-1 made by in vitro translation
Excerpt: as §4, §5, §2

T1 sequence (Q01094 whole entry, the tested form may be a part, one chain of several): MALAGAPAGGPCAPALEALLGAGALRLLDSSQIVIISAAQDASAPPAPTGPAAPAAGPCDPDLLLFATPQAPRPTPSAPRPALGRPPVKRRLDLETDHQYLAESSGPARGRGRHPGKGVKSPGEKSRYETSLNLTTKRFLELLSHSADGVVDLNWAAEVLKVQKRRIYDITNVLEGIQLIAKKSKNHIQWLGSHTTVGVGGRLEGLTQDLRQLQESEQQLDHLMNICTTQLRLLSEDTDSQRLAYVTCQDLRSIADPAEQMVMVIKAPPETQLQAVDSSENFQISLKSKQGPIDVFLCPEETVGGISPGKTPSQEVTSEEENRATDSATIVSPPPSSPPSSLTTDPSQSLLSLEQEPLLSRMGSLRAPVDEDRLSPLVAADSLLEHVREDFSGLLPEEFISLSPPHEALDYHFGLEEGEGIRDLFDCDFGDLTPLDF
T2 sequence (Q01094 whole entry, the tested form may be a part, one chain of several): as above
T4 sequence (O00716 whole entry, the tested form may be a part, one chain of several): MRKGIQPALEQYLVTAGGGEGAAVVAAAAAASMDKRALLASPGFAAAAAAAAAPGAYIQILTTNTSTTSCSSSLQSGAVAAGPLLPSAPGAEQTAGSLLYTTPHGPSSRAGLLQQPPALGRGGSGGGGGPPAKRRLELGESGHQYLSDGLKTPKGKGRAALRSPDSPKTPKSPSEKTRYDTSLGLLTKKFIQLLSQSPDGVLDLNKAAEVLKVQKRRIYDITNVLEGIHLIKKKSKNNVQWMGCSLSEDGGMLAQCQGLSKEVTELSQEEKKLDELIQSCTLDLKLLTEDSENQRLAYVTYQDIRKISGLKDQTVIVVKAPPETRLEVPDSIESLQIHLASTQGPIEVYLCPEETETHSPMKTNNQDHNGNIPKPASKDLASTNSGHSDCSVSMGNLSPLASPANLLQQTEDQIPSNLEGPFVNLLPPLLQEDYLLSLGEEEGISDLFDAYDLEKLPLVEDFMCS
T5 sequence (Q14209 whole entry, the tested form may be a part, one chain of several): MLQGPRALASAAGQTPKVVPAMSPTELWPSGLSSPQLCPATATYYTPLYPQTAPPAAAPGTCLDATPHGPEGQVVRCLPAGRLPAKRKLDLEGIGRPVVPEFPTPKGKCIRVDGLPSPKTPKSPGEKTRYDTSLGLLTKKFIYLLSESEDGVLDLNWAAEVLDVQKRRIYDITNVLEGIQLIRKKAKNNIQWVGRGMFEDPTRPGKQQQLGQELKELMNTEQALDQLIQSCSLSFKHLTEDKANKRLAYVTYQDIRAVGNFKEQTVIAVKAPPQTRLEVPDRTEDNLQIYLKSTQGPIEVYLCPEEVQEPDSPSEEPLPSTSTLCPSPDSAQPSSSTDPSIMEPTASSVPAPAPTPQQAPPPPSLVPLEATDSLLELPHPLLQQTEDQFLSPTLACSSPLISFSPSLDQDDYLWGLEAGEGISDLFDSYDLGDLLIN

For “15: DP-1 peptide taken from DCB1, C-terminal side of the DEF homology region (NLVQRNRQAEQQARR) [Peptide 15, reference compound]”, which “inhibition of DP-1/E2F-1 DNA binding activity” value (“inhibition” below) [1] is on record?
Its value is “did not interfere with DNA binding activity”.

And the “effect on binding of DP-1 to E2F-1 (formation of DP-1/E2F-1 heterodimer)” value (“effect … (formation of DP-1/E2F-1 heterodimer)” below) (DP-1/E2F-1 heterodimer)?
Its value is “failed to have any noticeable effect”.

How did the “inhibition” value [1] turn out when “17: DP-1 peptide taken from DCB1, C-terminal side of the DEF homology region (EVERQRRLERIKQKQ) [Peptide 17, reference compound]” was run?
Its value is “did not interfere with DNA binding activity”.

What about the “effect … (formation of DP-1/E2F-1 heterodimer)” value (DP-1/E2F-1 heterodimer) of the same substance?
The value was “failed to have any noticeable effect”.

For “H1: peptide derived from the DEF box region which failed to affect heterodimer formation (RRRVYDALNVL) [Peptide H1]”, which “inhibition” value [1] is on record?
The value was “did not interfere with DNA binding activity”.

And the “effect … (formation of DP-1/E2F-1 heterodimer)” value (DP-1/E2F-1 heterodimer)?
Its value is “failed to affect formation of the DP-1/E2F-1 heterodimer”.

What about the “inactivation of E2F DNA binding activity in F9 EC cell extracts” value (“inactivation of E2F DNA binding activity” for short) [2] of the same substance?
Its value is “not”.

What does the source list for “H6: shorter DEF box peptide lacking activity (RRVYDALNVLMAMN) [Peptide H6]”?
inhibition of DP-1/E2F-1 DNA binding activity [1]: did not interfere with DNA binding activity; effect on binding of DP-1 to E2F-1 (formation of DP-1/E2F-1 heterodimer) (DP-1/E2F-1 heterodimer): lacked activity; also recorded: failed to affect formation of the DP-1/E2F-1 heterodimer

Which “effect on binding of pRb to E1a” value [3] does the source give for “KNIRRRVYDALNVLMAMNIISKEKKEIKWIGLPTNSA [Peptide H, complete DEF box region, residues 163 to 199 of DP-1, 37 residues]” here?
The value was “no apparent effect”.

And the “inhibition” value [1]?
Its value is “Clear inhibition of DNA binding activity”.

And the “effect on ATF DNA binding activity” value (ATF DNA binding activity)?
Its value is “no effect”.

And the “effect on ability of E2F-3 to bind to DP-1” value (DP-1/E2F-3 heterodimer)?
The value was “interfered specifically”.

What about the “effect … (formation of DP-1/E2F-1 heterodimer)” value (DP-1/E2F-1 heterodimer) of the same substance?
The value was “interfere with the binding efficiency of DP-1 and E2F-1”.

What about the “inactivation of E2F DNA binding activity” value [2] of the same substance?
Its value is “inactivated”.

What about the “sensitivity of pocket protein-E2F complex relative to free E2F heterodimer” value ([2]; slower migrating E2F complex) of the same substance?
Its value is “less sensitive”.

And the “effect on ability of E2F-2 to bind to DP-1” value (DP-1/E2F-2 heterodimer)?
Its value is “interfered specifically”.

NVLMAMNIISKEKKEIKWIG [Peptide H3] was tested. Which “inhibition” value [1] did it give?
Its value is “lower activity compared to H2 and H7”.

How did the “inhibition” value [1] turn out when “Peptide 18: contains the N-terminal sequence taken from the DEF homology region (NESAYDQKNIRR) [reference compound]” was run?
Its value is “did not interfere with DNA binding activity”.

And the “effect … (formation of DP-1/E2F-1 heterodimer)” value (DP-1/E2F-1 heterodimer)?
Its value is “failed to have any noticeable effect”.

For “RARVYAALNVLMAMNIISK [Peptide H2mt2, mutant H2 peptide]”, which “inactivation of E2F DNA binding activity” value [2] is on record?
The value was “retained some activity, but less than wild-type H2”.

“RRRAYDALNALMAMNIISK [Peptide H2mt1, mutant H2 peptide, V169 and V175 altered]” was tested. Which “inactivation of E2F DNA binding activity” value [2] did it give?
The value was “inactivated the E2F site DNA binding activity in F9 EC cell extracts with similar efficiency”.

“RVYDALNVLMAMNIIS [Peptide H5, 16 residues within H2]” was tested. Which “inhibition” value [1] did it give?
The value was “lower activity compared to H2 and H7”.

And the “effect … (formation of DP-1/E2F-1 heterodimer)” value (DP-1/E2F-1 heterodimer)?
Its value is “retained antagonistic activity”.
